IntAct's records for PubMed 35512704

B1: Speckle-type POZ protein (Homo sapiens), O43791 (parent)
chain: MSRVPSPPPPAEMSSGPVAESWCYTQIKVVKFSYMWTINNFSFCREEMGEVIKSSTFSSGANDKLKWCLRVNPKGLDEESKDYLSLYLLLVSCPKSEVRAKFKFSILNAKGEETKAMESQRAYRFVQGKDWGFKKFIRRDFLLDEANGLLPDDKLTLFCEVSVVQDSVNISGQNTMNMVKVPECRLADELGGLWENSRFTDCCLCVAGQEFQAHKAILAARSPVFSAMFEHEMEESKKNRVEINDVEPEVFKEMMCFIYTGKAPNLDKMADDLLAAADKYALERLKVMCEDALCSNLSVENAAEILILADLHSADQLKTQAVDFINYHASDVLETSGWKSMVVSHPHLVAEAYRSLASAQCPFLGPPRKRLKQS
partner: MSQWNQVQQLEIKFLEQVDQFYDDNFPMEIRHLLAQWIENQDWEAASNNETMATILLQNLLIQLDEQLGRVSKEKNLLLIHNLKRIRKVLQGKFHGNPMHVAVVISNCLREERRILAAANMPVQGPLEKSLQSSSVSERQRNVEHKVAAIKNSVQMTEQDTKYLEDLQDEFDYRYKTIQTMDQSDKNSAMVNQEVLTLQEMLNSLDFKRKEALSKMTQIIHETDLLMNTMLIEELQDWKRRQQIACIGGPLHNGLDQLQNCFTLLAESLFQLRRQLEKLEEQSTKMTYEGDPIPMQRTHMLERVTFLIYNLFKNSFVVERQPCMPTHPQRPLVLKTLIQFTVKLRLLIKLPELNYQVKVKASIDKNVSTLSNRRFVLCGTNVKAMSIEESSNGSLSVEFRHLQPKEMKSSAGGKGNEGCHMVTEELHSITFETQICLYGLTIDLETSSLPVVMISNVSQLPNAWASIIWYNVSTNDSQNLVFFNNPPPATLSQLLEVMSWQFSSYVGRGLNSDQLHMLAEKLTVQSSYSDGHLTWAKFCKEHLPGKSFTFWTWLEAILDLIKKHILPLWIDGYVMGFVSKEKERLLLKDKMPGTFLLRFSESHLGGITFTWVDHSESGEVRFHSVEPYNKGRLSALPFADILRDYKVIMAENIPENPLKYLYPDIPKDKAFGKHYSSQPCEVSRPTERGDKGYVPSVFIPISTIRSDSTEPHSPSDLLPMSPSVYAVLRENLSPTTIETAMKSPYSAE
B2: Speckle-type POZ protein (Homo sapiens), O43791 (parent)
chain: B1 chain
partner: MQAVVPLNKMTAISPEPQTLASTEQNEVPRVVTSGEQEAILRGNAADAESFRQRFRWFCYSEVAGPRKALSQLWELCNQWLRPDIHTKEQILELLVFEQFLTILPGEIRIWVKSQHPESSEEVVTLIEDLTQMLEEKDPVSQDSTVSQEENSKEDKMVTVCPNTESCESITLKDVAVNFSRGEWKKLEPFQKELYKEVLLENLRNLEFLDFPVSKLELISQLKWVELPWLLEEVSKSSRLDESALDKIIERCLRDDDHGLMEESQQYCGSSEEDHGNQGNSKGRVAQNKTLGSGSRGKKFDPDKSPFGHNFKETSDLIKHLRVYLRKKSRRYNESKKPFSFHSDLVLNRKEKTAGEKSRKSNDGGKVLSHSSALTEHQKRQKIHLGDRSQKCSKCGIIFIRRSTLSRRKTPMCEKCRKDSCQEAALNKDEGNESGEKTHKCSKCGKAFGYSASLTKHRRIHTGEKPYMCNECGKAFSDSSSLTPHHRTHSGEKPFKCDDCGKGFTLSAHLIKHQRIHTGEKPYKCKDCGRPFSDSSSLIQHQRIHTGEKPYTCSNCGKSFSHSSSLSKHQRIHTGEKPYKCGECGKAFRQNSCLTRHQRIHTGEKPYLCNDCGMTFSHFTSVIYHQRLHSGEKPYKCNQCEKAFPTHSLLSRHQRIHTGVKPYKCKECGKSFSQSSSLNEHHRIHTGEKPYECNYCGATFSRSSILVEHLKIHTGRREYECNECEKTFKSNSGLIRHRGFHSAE
B3: Speckle-type POZ protein (Homo sapiens), O43791 (parent)
chain: B1 chain
partner: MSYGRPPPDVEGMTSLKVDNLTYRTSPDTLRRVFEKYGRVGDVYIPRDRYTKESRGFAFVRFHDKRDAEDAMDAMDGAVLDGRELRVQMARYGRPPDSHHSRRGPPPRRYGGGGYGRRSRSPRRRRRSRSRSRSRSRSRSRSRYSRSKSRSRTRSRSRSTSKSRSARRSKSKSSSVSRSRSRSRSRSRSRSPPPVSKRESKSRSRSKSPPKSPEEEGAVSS
B4: Speckle-type POZ protein (Homo sapiens), O43791 (parent)
chain: B1 chain
partner: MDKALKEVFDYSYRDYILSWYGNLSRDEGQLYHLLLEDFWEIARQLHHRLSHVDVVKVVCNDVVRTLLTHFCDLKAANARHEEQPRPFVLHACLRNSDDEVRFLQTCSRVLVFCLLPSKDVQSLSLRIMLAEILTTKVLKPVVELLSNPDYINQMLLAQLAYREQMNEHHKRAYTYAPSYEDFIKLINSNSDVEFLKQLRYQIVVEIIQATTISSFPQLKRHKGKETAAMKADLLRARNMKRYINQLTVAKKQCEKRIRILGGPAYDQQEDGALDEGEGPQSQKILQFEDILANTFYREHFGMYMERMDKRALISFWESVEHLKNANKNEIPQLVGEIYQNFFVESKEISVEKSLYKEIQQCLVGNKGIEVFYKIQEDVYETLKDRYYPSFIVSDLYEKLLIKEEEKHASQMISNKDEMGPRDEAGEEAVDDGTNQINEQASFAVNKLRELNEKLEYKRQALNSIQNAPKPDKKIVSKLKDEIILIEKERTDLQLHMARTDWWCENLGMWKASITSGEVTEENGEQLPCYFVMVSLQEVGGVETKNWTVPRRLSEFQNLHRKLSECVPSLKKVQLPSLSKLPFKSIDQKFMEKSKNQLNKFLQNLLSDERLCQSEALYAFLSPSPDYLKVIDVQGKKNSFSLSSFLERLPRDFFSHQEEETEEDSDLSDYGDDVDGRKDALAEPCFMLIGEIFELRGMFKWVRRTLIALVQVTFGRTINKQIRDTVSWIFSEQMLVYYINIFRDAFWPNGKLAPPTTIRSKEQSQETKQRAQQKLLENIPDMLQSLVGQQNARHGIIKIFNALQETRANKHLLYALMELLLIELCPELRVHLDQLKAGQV
B5: Speckle-type POZ protein (Homo sapiens), O43791 (parent)
chain: B1 chain
partner: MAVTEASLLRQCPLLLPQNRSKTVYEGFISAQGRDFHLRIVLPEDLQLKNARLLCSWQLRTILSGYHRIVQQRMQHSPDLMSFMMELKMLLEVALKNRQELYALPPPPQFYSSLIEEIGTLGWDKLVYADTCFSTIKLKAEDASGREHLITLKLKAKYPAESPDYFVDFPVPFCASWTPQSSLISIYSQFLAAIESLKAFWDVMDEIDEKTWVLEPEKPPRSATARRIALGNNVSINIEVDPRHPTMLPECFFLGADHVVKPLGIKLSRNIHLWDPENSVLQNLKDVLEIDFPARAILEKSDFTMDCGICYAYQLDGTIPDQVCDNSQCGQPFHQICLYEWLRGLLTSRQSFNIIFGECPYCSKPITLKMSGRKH
B6: Speckle-type POZ protein (Homo sapiens), O43791 (parent)
chain: B1 chain
partner: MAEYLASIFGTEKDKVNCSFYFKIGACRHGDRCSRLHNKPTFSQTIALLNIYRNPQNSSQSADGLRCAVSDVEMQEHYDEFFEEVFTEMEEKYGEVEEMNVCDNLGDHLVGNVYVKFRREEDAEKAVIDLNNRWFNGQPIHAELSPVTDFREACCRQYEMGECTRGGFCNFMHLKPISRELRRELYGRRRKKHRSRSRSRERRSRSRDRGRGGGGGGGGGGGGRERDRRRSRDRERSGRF

Variants of: B1
Conditions: with stat4_human STAT4, Q14765

Row | Variant | effect of a mutation on the interaction
1 | F102C | with no effect

Variants of: B2
Conditions: with zn483_human ZNF483, Q8TF39

Row | Variant | effect of a mutation on the interaction
2 | Y87C | with no effect

Variants of: B3
Conditions: with srsf2_human SRSF2, Q01130

Row | Variant | effect of a mutation on the interaction
3 | F133V | with no effect

Variants of: B3
Conditions: with srsf2_human SRSF2, Q01130
Remark: another data set of the same source

Row | Variant | effect of a mutation on the interaction
4 | F133L | with no effect

Variants of: B3
Conditions: with srsf2_human SRSF2, Q01130
Remark: another data set of the same source

Row | Variant | effect of a mutation on the interaction
5 | F102C | with no effect

Variants of: B3
Conditions: with srsf2_human SRSF2, Q01130
Remark: another data set of the same source

Row | Variant | effect of a mutation on the interaction
6 | Y87C | with no effect

Variants of: B4
Conditions: with snx25_human SNX25, Q9H3E2

Row | Variant | effect of a mutation on the interaction
7 | F133L | with no effect

Variants of: B4
Conditions: with snx25_human SNX25, Q9H3E2
Remark: another data set of the same source

Row | Variant | effect of a mutation on the interaction
8 | F133V | with no effect

Variants of: B4
Conditions: with snx25_human SNX25, Q9H3E2
Remark: another data set of the same source

Row | Variant | effect of a mutation on the interaction
9 | F102C | with no effect

Variants of: B4
Conditions: with snx25_human SNX25, Q9H3E2
Remark: another data set of the same source

Row | Variant | effect of a mutation on the interaction
10 | Y87C | with no effect

Variants of: B5
Conditions: with fancl_human FANCL

Row | Variant | effect of a mutation on the interaction
11 | Y87C | with no effect

Variants of: B5
Conditions: with fancl_human FANCL
Remark: another data set of the same source

Row | Variant | effect of a mutation on the interaction
12 | F133L | with no effect

Variants of: B6
Conditions: with U2AF1, Q01081

Row | Variant | effect of a mutation on the interaction
13 | F102C | with no effect

Variants of: B6
Conditions: with U2AF1, Q01081
Remark: another data set of the same source

Row | Variant | effect of a mutation on the interaction
14 | F133V | with no effect

Variants of: B6
Conditions: with U2AF1, Q01081
Remark: another data set of the same source

Row | Variant | effect of a mutation on the interaction
15 | F133L | with no effect

Variants of: B6
Conditions: with U2AF1, Q01081
Remark: another data set of the same source

Row | Variant | effect of a mutation on the interaction
16 | Y87C | with no effect
